{"source": "paper PMC2922993", "key": {"[1]": {"biological_target": "inhibitor of growth 2 (ING2) PHD finger", "test": "ITC"}, "[2]": {"biological_target": "JMJD2A double tudor domain (UniProt O75164)", "sequence (O75164 895-1011)": "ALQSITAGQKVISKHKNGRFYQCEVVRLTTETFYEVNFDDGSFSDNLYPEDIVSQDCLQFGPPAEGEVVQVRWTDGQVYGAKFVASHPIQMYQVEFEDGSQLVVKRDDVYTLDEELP", "test": "ITC"}, "ING2 PHD finger": {"biological_target": "ING2 PHD finger (UniProt Q9H160)", "test": "ITC with soluble peptides", "details": "reference: H3K4me3 peptide; sites T3"}, "RAG2 PHD finger, 414-487": {"biological_target": "RAG2 PHD finger, 414-487 (UniProt P21784)", "test": "ITC with soluble peptides", "details": "reference: unphosphorylated H3K4me3 peptide"}}, "data": [{"substance": "H3K4me3T6ph peptide (ITC)", "values": [{"measurement": "Kd", "setting": "[1]", "value": 19.9, "unit": "µM"}, {"measurement": "Kd", "setting": "[2]", "value": 1.8, "unit": "µM"}]}, {"substance": "histone H3 (from UniProt P68431) H3K4me3 peptide with T3ph", "values": [{"measurement": "KD", "setting": "ING2 PHD finger", "value": "lost; reference 0.98"}, {"measurement": "KD", "setting": "RAG2 PHD finger, 414-487; sites T3", "value": "lost; reference 17.8"}]}, {"substance": "histone H3 (from UniProt P68431) H3K4me3 peptide with T6ph", "values": [{"measurement": "KD", "setting": "RAG2 PHD finger, 414-487; sites T6", "value": "lost; reference 17.8"}]}]}
